Measurements published in the DeepSol protein solubility set.

Assay: soluble on expression in E. coli; label from the status in PepcDB or PDB records

Sequence | soluble on expression in E. coli
MVHHDGFQTVKGTIDWEHPMYKLYEKAKRNGKWNPADIDFSQDKEDFARLTSEEKIAALPLVAGFSAGEEAVTLDILPMAHALARQGRLEDVMFLTTFMHDEAKHVEMFSRWQQEVGIGAMDLSVFHNDHYKRIFYEALPEAMNRLYTDDSPEAVIRAATVYNMIVEGTLAESGYYTFRQIYKKAGLFPGLLQGIDYLNMDEGRHIQFGLYTIQRLVNENERYYDLFIQYMDELWPHVVGYVAYLTELGKRQQQLARTYALEIDYDMLNNYVVKQFNIRKKQISRAKRVDSIEELEKTVAES | not soluble
MGSDKIHHHHHHMSETSDTIREAFTESAWIPSPKEVFGPDGSLTEEVGEENKSLIWTLLKQIRPGMDLSKVVLPTFILEPRSFLEKLADYYYHADLISEAVAEPDPFQRIVKVTKFFLSGFYKKPKGLKKPYNPILGETFRCKWEHPDGSTTFYMAEQVSHHPPVSSLFITNRKAGFNISGTILAKSKYYGNSLSAILAGKLRLTLLNLGETYIVNLPYANCKGIMIGTMTMELGGEVNIECEKTGYRTTLDFKLKPMLGGAYNQIEGSIKYGSDRLASIEGAWDGVIRIKGPDGKKELWNPTPEVIKTRLPRYEINMDEQGEWESAKLWRHVTEAISNEDQYKATEEKTALENDQRARAKSGIPHETKFFKKQHGDDYVYIHADYRPWDNNNDIQQIENNYVVKTISRHSKRKTGNSEQLGSDNTSEASESDEE | not soluble
MYEITATIVTYKNPDSVLLKAINSFLNTKLEVRLYIIDNSPTDYLKDISYDPRVEYIFMNSNNGFGAGHNVILRDPEKMGKYHLILNPDISFEEGTLEKLYDYMEGKLDVGNVMPKVIYPNGELQYLCKLLPTPKDWIVRMFLPIKSIKNRIDYNFEMKFADYDREMNIPYLSGCFMFLRKSVIEGIGVFDEGIFMYGEDTDLNRRIYRKYKTMYYPQVTITHHFEKGSHKSLRLLWIHVKAAIYYLNKWGWFFDKERSIINITVKQQYIRKLEHHHHHH | soluble
MSLKKILIIDQQDFSRIELKNFLDSEYLVIESKNEKEALEQIDHHHPDLVILDMDIIGENSPNLCLKLKRSKGLKNVPLILLFSSEHKEAIVNGLHSGADDYLTKPFNRNDLLSRIEIHLRTQNYYSDLRKNDLLMLLELTETISVTRNPRRILSIIVERLIKTIDVSRCSIIGINDFGELLVLASSDLPENQEIKLDLKKYPEIEKALETQRPVVLQDITNSALMKPVKKHIEALSDNAVFVVPIIKKQNVIGTFFLRTACLQKGGITDRIFKLCQVIASISGNALENAIIFESMETNKKLLEDLSVRDSLTKLYNHQHYHSRLEDEFSRAQRYNLDLSCIFLDIDNFKNINDRYGHLAGDMVLRQIARLISQVIRKSDISARYGGEEFAICLPNTGGVAANELAERLLVMIRELSIQQLKGEHVTVSIGTSTYSNHNVASYSELLHLADDAMYEAKKSGKNRFCCSTAMEGHHHHHH | soluble
MSLFRVGRKIARSIHKAITSEDSVDVSELDGVRSLHLGSDTIQSSMRIKDPYALELRYSRGMMVYLLFQKQPRDLVVLGLGGGSIPKYVYHHLPQVKTRVVEINPRIIEVARSHFFTPENDERFEIIEGDAAAFLRDNPATTSMLMMDAFGSNGLPPDLCSQDFFDSCFEALTLDGMCAINLWGSDKHYDVYLQRIETSFHGRILVMPTGRPGNVVVFGFKRAPNDLRWSTLRVRAKALEAEHKIEFLEFVERLREHNPSTSNRLLLESEGHHHHHH | soluble
MNTKQSNSHSTPSTFEGAQIRQGKASQCKTLMVQGTTSDAGKTTLVAGLCRVFADLQVKVAPFKPQNMALNSAVTPCGGEIGRAQALQAKAARLALDVDFNPILLKPNSDTGAQVIVHGKALMHRSSSNMEASEYQDYKKVAMQAVLSSHQRLTQQYDLVVVEGAGSPAEINLRKGDIANMGFAEAVDCPVLIIADIDKGGVFAQLVGTLMLLSQSEQDRVVGFVINRFRGDIKLLESGLTWLEERTNKPVLGVLPYLHGLDISSEDALVTQQALV | not soluble
MHHHHHHMKEVVSSVYKEILVKLGLTEDRIETLEMKGGIIEDEFDGIRYVRFKDSAGKLRRGTVVIDEEYVIPGFPHIKRIINLRSGIRRIFKRGEFYVEEKVDGYNVRVVMYKGKMLGITRGGFICPFTTERIPDFVPQEFFKDNPNLILVGEMAGPESPYLVEGPPYVKEDIQFFLFDVQEIKTGRSLPVEERLKIAEEYGINHVEVFGKYTKDDVDELYQLIERLSKEGREGIIMKSPDMKKIVKYVTPYANINDIKIGARVFYELPPGYFTSRISRLAFYLAEKRIKGEEFERVAKELGSALLQPFVESIFDVEQEEDIHELFKVRVKRIETAYKMVTHFEKLGLKIEIVDIEEIKDGWRITFKRLYPDATNEIRELIGGKAFVD | soluble
MGSDKIHHHHHHMKMSINQIGRSNKVQIEKTEVEISTPDGKMPAFFYQPCERGQKPAVILLMEAFGLTSHIQDVATRIAKEGYVVLTPDLYYRELTNNKFGYEEVEQAMAMMYRLDFGKPIEEDIRAAIAYLKSQSNVFSEKIGVTGFCLGGGLSFLSACKFSDEIAAVASFYGMVLDDWIEAVTNISVPIYLFYGGIDSFIPPERVQQIETRFQELSKEYTLKVYPDADHGFFCHERSSYNRLAAEDSWNELTQFFHRHLQ | not soluble
MATTQQSSTKQDILEYLLKEVQATSLELAEVLEVSPQAIRRHLKDLETDNLVVYFVPEQVGMGRPQHLYQLSQRGREQLQRNVNRLSDGYGDFAVSLLDTLAATVGREQVKTILQKQWERKAQEYRERVGTGSLQERVANLVELRKAEGFMAEFYPVESDSAHSERFIFMEHTCAISNVAESFPSICGHELEMFAAILPDCTVKRTHWLIDGEHRCGYLVQRSSGVTGVTEVEN | not soluble
MIGKNIKSLRKTHDLTQLEFARIVGISRNSLSRYENGTSSVSTELIDIICQKFNVSYVDIVGEDKMLNPVEDYELTLKIEIVKERGANLLSRLYRYQDSQGISIDDESNPWILMSDDLSDLIHTNIYLVETFDEIERYSGYLDGIERMLEISEKRMVA | soluble
MSLTDLSRPTLPGALPDKRQVAASFSRAAASYDSVAALQRAVGLSLLEQLPAGLQPSHWLDLGSGTGHFSRMLAERFAQAGGVAVDIAEGMLLHARHVKGGAQYHVVGDAERLPLRDASVDLVFSSLAVQWCDQFASVLAEAQRVLRPGGVLAFSSLCVGTLDELRASWQAVDGLVHVNRFRRFEDYQRLCAASGFEQLELERCPHVLHYPDVRSLTHELKALGAHNLNPGRPSGLTGRARMQGLLQAYEAFRQPAGLPATYQVVYGVLRKPLAEGHHHHHH | not soluble
MSLSKQIVILGAGYGGLLAALNVRKYYSKSEAQVTVINQYPTHQIITELHRLAAGNVSEQAVAMPLTKLFKGKDIDLKIATVESFSVDSKEIKLAGGTTLSYDALVVALGSKTAYFGIPGLEENSMVLKSAADANKIYKHVEDRIREYAKTKNEADATIVIGGGGLTGVELVGELADIMPKLAKSHGVNPKEVKLLLVEAGPKILPVLPDHLIERATTSLEARGVTFLTGLPVTNVAGNEIDLKDGQKLVANTFVWTGGVQGNPLIGESGLEVNRGRATVDAYLQSTSHKDVFVAGDSAVVFAPDGRPYPPTAQIAWQMGELIGYNLYAALEGKAFEEFAPVNSGTLASLGRKDAVATIGASNTPLKGLPASLMKEASNVRYLSHIKGLFSLAYEGHHHHHH | soluble
MGSDKIHHHHHHMLKLSVCLLTCNSARLLMEVLPPLLKVADECIVVDSGSTDETVAICQQFGLTVHHHAYKAHGAQMNYAIGLASHDWVLCMDSDEILDNDVVAAIQALKAGEEPEPTCAWRLPRYWFVLGKQVRTIYPISSPDYPVRLFNRQQARFNDRPVDDQVVGHASSVRLPGFVRHDTFYSLHEVFNKLNSYTTRLVKYQQIKPSLTRGIVSAIGAFFKWYLFSGAWRYGKVGVVTGLYATFYSFLKYFKAWYAHEDNQAPVAQKRTDP | not soluble
MKQVTVLLIGLGRMGSRFFDKFVEIGEERVKIVGVCELNEQNPKVLEAKKRNIPLYPSYKEALTDLHESVDIILDTSNISEVKRDIRELLSRQNNQHSVLLPMVADYLLWYMLPNAEEIPQDHTDIGY | not soluble
